Reference: US20170143798A1

What was measured:
[1] = molecular target: mouse IL-22 receptor (IL-22R1) on murine MIN6N8 β-cells and murine islets (mouse) (UniProt Q80XZ4); experiment: cell-based or functional assay
[2] = molecular target: T1, human IL-22 receptor (IL-22R1) on human LS174T cells and human islets (human) (UniProt Q8N6P7); experiment: cell-based or functional assay
T1 sequence (looked up): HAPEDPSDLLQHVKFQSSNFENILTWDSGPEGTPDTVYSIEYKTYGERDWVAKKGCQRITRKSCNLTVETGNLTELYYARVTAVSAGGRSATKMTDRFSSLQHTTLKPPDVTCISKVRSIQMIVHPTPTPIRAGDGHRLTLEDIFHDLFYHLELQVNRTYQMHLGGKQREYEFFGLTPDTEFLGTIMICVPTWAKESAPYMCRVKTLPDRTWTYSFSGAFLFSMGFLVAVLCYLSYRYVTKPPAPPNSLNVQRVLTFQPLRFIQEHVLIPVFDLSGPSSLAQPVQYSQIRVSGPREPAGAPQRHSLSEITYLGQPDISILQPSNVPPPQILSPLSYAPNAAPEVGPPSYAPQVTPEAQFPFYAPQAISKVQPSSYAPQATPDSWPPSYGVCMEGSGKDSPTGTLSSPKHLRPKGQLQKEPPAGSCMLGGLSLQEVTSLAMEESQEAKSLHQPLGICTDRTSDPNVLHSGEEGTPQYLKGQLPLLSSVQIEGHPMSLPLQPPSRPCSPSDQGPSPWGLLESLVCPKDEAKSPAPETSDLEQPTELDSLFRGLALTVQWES

Sequence of UniProt Q80XZ4 (Q80XZ4 16-581): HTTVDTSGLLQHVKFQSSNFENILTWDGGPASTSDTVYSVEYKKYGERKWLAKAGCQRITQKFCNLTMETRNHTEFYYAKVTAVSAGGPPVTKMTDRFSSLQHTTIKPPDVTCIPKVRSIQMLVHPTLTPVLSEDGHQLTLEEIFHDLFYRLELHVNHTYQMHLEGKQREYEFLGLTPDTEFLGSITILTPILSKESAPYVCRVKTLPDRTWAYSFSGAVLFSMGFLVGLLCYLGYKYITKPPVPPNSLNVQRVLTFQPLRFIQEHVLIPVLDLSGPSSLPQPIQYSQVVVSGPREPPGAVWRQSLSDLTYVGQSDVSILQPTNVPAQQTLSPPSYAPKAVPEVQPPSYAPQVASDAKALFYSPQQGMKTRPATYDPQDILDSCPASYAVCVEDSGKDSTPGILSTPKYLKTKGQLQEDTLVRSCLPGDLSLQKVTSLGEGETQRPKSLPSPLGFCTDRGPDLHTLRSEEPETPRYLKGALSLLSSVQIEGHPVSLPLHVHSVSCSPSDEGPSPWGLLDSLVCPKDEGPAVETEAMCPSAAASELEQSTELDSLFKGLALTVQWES

**Q.** For “recombinant human IL-22 (from UniProt Q9GZX6 34-179) (ligand)”, which reduction of ER stress (ERAI-sXBP1 reporter) in murine MIN6N8 cells with 0.5 mM palmitate; amount needed against recombinant mouse IL-22 [1] is on record?
**A.** The reduction of ER stress (ERAI-sXBP1 reporter) in murine MIN6N8 cells with 0.5 mM palmitate; amount needed against recombinant mouse IL-22 was 16 fold.

B1: recombinant mouse IL-22 (ligand, UniProt Q9JJY9 34-179, looked up)
chain: LPVNTRCKLEVSNFQQPYIVNRTFMLAKEASLADNNTDVRLIGEKLFRGVSAKDQCYLMKQVLNFTLEDVLLPQSDRFQPYMQEVVPFLTKLSNQLSSCHISGDDQNIQKNVRRLKETVKKLGESGEIKAIGELDLLFMSLRNACV
**Q.** With B1 as the molecule, how does the suppression of oxidative stress (nitrite production) in human LS174T cells with 0.5 mM palmitate; concentration needed against human recombinant IL-22 [2] read?
**A.** Its suppression of oxidative stress (nitrite production) in human LS174T cells with 0.5 mM palmitate; concentration needed against human recombinant IL-22 is 64 fold.
